From patent US20180155451A1 (published 2018)

T1: FcγRIIa H (FcγRIIa type H, His at position 131), extracellular domain with C-terminal His tag (human, UniProt P12318 34-217)
T1 construct: extracellular domain; Expressed in FreeStyle293 cells; analyte in the Biacore assay; also called FcgRIIa H; 2aH; not shown: His tag at the C terminus
T1 sequence (looked up): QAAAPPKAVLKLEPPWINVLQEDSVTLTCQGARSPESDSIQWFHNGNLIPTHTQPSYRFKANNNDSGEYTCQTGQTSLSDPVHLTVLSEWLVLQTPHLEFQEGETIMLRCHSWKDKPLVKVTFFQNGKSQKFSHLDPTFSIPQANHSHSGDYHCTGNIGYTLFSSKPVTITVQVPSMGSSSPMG

T2: FcγRIIa H (human, UniProt P12318 34-217)
T2 construct: extracellular domain; Soluble extracellular domain with C-terminal His tag, expressed in FreeStyle293 cells; also called FcgRIIa H; 2aH; not shown: C-terminal His tag
T2 sequence (looked up): T1 sequence (looked up)

T3: FcγRIIb (human, UniProt P31994 43-217)
T3 construct: extracellular domain; Soluble extracellular domain with C-terminal His tag, expressed in FreeStyle293 cells; also called FcgRIIb; 2b; not shown: C-terminal His tag
T3 sequence (looked up): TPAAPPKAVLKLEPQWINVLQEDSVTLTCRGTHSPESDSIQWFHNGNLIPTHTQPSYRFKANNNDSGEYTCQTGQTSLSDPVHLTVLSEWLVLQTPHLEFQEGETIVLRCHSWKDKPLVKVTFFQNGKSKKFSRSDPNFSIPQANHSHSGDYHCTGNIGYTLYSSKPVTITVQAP

T4: FcγRIIb, extracellular domain with C-terminal His tag (human, UniProt P31994 43-217)
T4 construct: extracellular domain; Expressed in FreeStyle293 cells; analyte in the Biacore assay; also called FcgRIIb; 2b; not shown: His tag at the C terminus
T4 sequence (looked up): T3 sequence (looked up)

B1: GpH7-A5/GpH7-B3 variant P329_18N/GpL16-k0 (antibody, human IgG1, kappa)
heavy 1: not shown
heavy 2: not shown
light: DIVMTQSPLSLPVTPGEPASISCQASESLVHSNRNTYLHWYLQKPGQSPQLLIYKVSNRFSGVPDRFSGSGSGTDFTLKISRVEAEDVGVYYCSQNTHVPPTFGQGTKVEIERTVAAPSVFIFPPSDEQLKSGTASVVCLLNNFYPREAKVQWKVDNALQSGNSQESVTEQDSKDSTYSLSSTLTLSKADYEKHKVYACEVTHQGLSSPVTKSFNRGEC
notes: He Ab; IgG1; mutation in one H chain only; also called He Ab
B2: GpH7-A5/GpH7-B3 variant S324_11K/GpL16-k0 (antibody, human IgG1, kappa)
heavy 1: not shown
heavy 2: not shown
light: B1 light
notes: as for B1
B3: GpH7-A5/GpH7-B3 variant S324_19Q/GpL16-k0 (antibody, human IgG1, kappa)
heavy 1: not shown
heavy 2: not shown
light: B1 light
notes: as for B1
B4: GpH7-A5/GpH7-B3 variant Y300_12R/GpL16-k0 (antibody, human IgG1, kappa)
heavy 1: not shown
heavy 2: not shown
light: B1 light
notes: as for B1
B5: GpH7-A5/GpH7-B3 variant Y300_13S/GpL16-k0 (antibody, human IgG1, kappa)
heavy 1: not shown
heavy 2: not shown
light: B1 light
notes: as for B1
B6: GpH7-A5/GpH7-B3 variant S324_02A/GpL16-k0 (antibody, human IgG1, kappa)
heavy 1: not shown
heavy 2: not shown
light: B1 light
notes: as for B1
B7: GpH7-A5/GpH7-B3 variant S324_16H/GpL16-k0 (antibody, human IgG1, kappa)
heavy 1: not shown
heavy 2: not shown
light: B1 light
notes: as for B1
B8: GpH7-A5/GpH7-B3 variant S324_18N/GpL16-k0 (antibody, human IgG1, kappa)
heavy 1: not shown
heavy 2: not shown
light: B1 light
notes: as for B1
B9: GpH7-A5/GpH7-B3 variant P329_19Q/GpL16-k0 (antibody, human IgG1, kappa)
heavy 1: not shown
heavy 2: not shown
light: B1 light
notes: as for B1
B10: GpH7-A5/GpH7-B3 variant S324_10E/GpL16-k0 (antibody, human IgG1, kappa)
heavy 1: not shown
heavy 2: not shown
light: B1 light
notes: as for B1
B11: GpH7-A5/GpH7-B3 variant S324_01G/GpL16-k0 (antibody, human IgG1, kappa)
heavy 1: not shown
heavy 2: not shown
light: B1 light
notes: as for B1
B12: GpH7-A5/GpH7-B3 variant Y300_14T/GpL16-k0 (antibody, human IgG1, kappa)
heavy 1: not shown
heavy 2: not shown
light: B1 light
notes: as for B1
B13: GpH7-A5/GpH7-B3 variant S324_09D/GpL16-k0 (antibody, human IgG1, kappa)
heavy 1: not shown
heavy 2: not shown
light: B1 light
notes: as for B1
B14: GpH7-A5/GpH7-B3 variant S324_12R/GpL16-k0 (antibody, human IgG1, kappa)
heavy 1: not shown
heavy 2: not shown
light: B1 light
notes: as for B1
B15: GpH7-A5/GpH7-B3 variant P238_03V/GpL16-k0 (antibody, human IgG1, kappa)
heavy 1: not shown
heavy 2: not shown
light: B1 light
notes: Heterodimerized anti-glypican-3 IgG1; alteration in the GpH7-B3 chain only; also called He Ab
B16: GpH7-A5/GpH7-B3 variant P238_13S/GpL16-k0 (antibody, human IgG1, kappa)
heavy 1: not shown
heavy 2: not shown
light: B1 light
notes: as for B15
B17: GpH7-A5/GpH7-B3 variant S239_05P/GpL16-k0 (antibody, human IgG1, kappa)
heavy 1: not shown
heavy 2: not shown
light: B1 light
notes: as for B15
B18: GpH7-A5/GpH7-B3 variant G237_08L/GpL16-k0 (antibody, human IgG1, kappa)
heavy 1: not shown
heavy 2: not shown
light: B1 light
notes: as for B15

target: T1, FcγRIIa H (FcγRIIa type H, His at …); assay: SPR Biacore; He/Con_2aH divided by He/Con_2b (reference: FcgRIIb)

| He_2aH/2b (IIaH/IIb) | Binder |
| --- | --- |
| 1.64 | B1 |
| 1.34 | B2 |
| 1.44 | B3 |
| 1.34 | B4 |
| 1.64 | B5 |
| 1.31 | B6 |
| 1.22 | B7 |
| 1.21 | B8 |
| 1.26 | B9 |
| 1.33 | B10 |
| 1.22 | B11 |
| 1.69 | B12 |
| 1.23 | B13 |
| 1.53 | B14 |

target: T2, FcγRIIa H; assay: SPR (Biacore), antibody captured, FcγR as analyte; relative to HeCon Ab
Method: (§1) The heterodimerized antibodies He Abs in which one of the H chains was introduced with an alteration were assayed for their binding activities to each activating FcγR and inhibitory FcγR according to the method described in Example 4. […] The activating FcγRs in FIGS. 26, 27, 28, and 29 are FcγRIa, FcγRIIa (R), FcγRIIa (H), and FcγRIIIa, respectively.
(§2) Analysis of interaction between objective antibody and the FcγR was carried out using Biacore T100 (GE Healthcare). HBS-EP+ (GE Healthcare) was used as the running buffer, and the measurement temperature was set to 25° C. Chips produced by immobilizing the antigen peptide by the amine coupling method to a Series S Sencor Chip CM5 (GE Healthcare), or alternatively, chips produced by allowing preliminarily biotinylated antigen peptides to interact with and immobilize onto a Series S Sensor Chip SA (certified) (GE Healthcare) were used. Antibodies of interest were captured onto an antigen peptide-immobilized chip, and allowed to interact to each FcγR diluted with running buffer. To regenerate and repeatedly use the chip, the antibodies captured on the chip were washed off by reacting 10 mM glycine-HCl, pH 1.5.

| He/Con_2aH | Binder |
| --- | --- |
| 89 % of GpH7-A5/GpH7-B3/GpL16-k0 (=100) | B15 |
| 50.9 % of GpH7-A5/GpH7-B3/GpL16-k0 (=100) | B16 |
| 33.3 % of GpH7-A5/GpH7-B3/GpL16-k0 (=100) | B17 |
| 13.9 % of GpH7-A5/GpH7-B3/GpL16-k0 (=100) | B18 |

target: T3, FcγRIIb; assay: as above
Method: as §1, §2

| He/Con_2b | Binder |
| --- | --- |
| 120 % of GpH7-A5/GpH7-B3/GpL16-k0 (=100) | B15 |
| 70.4 % of GpH7-A5/GpH7-B3/GpL16-k0 (=100) | B16 |
| 102 % of GpH7-A5/GpH7-B3/GpL16-k0 (=100) | B17 |
| 148 % of GpH7-A5/GpH7-B3/GpL16-k0 (=100) | B18 |

target: T1, FcγRIIa H (FcγRIIa type H, His at …); assay: SPR Biacore, captured antibody, FcgR analyte; GpH7-A5/GpH7-B3/GpL16-k0 = 100

| He/Con_2aH | Binder |
| --- | --- |
| 66.2 % of HeCon Ab | B1 |
| 92.2 % of HeCon Ab | B2 |
| 96 % of HeCon Ab | B3 |
| 55.4 % of HeCon Ab | B4 |
| 88.1 % of HeCon Ab | B5 |
| 102 % of HeCon Ab | B6 |
| 102 % of HeCon Ab | B7 |
| 97.8 % of HeCon Ab | B8 |
| 38.7 % of HeCon Ab | B9 |
| 103 % of HeCon Ab | B10 |
| 98.8 % of HeCon Ab | B11 |
| 94.1 % of HeCon Ab | B12 |
| 106 % of HeCon Ab | B13 |
| 96.5 % of HeCon Ab | B14 |

target: T4, FcγRIIb, extracellular domain with …; assay: as above

| He/Con_2b | Binder |
| --- | --- |
| 40.4 % of HeCon Ab | B1 |
| 68.6 % of HeCon Ab | B2 |
| 66.8 % of HeCon Ab | B3 |
| 41.2 % of HeCon Ab | B4 |
| 53.9 % of HeCon Ab | B5 |
| 78.3 % of HeCon Ab | B6 |
| 83.5 % of HeCon Ab | B7 |
| 81.1 % of HeCon Ab | B8 |
| 30.7 % of HeCon Ab | B9 |
| 77.4 % of HeCon Ab | B10 |
| 81.1 % of HeCon Ab | B11 |
| 55.6 % of HeCon Ab | B12 |
| 85.8 % of HeCon Ab | B13 |
| 63.1 % of HeCon Ab | B14 |
